According to patent publication US20080279864A1:
Read-outs that look alike come from different tables or passages of the source.

Experiments:
[1] = target: N-type (CaV2.2) Ca2+ channel (α1B with β2a and α2δ) in HEK293 cells (human; rat) (UniProt Q00975); assay: cell-based or functional assay
I-IIC-YFP (rabbit) = I-IIC-YFP (rabbit) (UniProt P15381); assay: FRET two-hybrid, relative dissociation constant against the NTB-CFP/I-IIB-YFP pair
I-IIB-YFP (human) [2] = target: I-IIB-YFP (human) (UniProt Q00975); assay: as above
I-IIB-YFP (human) [3] = target: I-IIB-YFP (human) (UniProt Q00975); assay: as above; remark: listed apart in the source
I-IIC-CFP (rabbit) = I-IIC-CFP (rabbit) (UniProt P15381); assay: as above
NTB(1-44)-pGBKT7 (human) [4] = assay: yeast two-hybrid auto-activation control (empty pGADT7), % of colonies surviving on high stringency plates, mean ± SEM
[5] = target: I-IIC(436-554)-pGBKT7 (I-II loop of α1C fused to the GAL4 binding domain) (rabbit); assay: as above
[6] = target: I-IIB(357-482)-pGBKT7 (I-II loop of α1B fused to the GAL4 binding domain) (human); assay: as above
[7] = target: NTB(56-95)-pGBKT7 (human); assay: as above
NTB(1-44)-pGBKT7 (human) [8] = assay: yeast two-hybrid auto-activation control (empty pGADT7), filter lift β-galactosidase assay, % of colonies turning blue, mean ± SEM
[9] = target: I-IIB(357-482)-pGBKT7 (I-II loop of α1B fused to the GAL4 binding domain) (human); assay: as above
[10] = target: NTB(56-95)-pGBKT7 (human); assay: as above

N-type (CaV2.2) Ca2+ channel (α1B with β2a and α2δ) in HEK293 cells (human; rat), sequence (Q00975 whole entry, stated change not applied, chain 1 of 3, other chains not shown): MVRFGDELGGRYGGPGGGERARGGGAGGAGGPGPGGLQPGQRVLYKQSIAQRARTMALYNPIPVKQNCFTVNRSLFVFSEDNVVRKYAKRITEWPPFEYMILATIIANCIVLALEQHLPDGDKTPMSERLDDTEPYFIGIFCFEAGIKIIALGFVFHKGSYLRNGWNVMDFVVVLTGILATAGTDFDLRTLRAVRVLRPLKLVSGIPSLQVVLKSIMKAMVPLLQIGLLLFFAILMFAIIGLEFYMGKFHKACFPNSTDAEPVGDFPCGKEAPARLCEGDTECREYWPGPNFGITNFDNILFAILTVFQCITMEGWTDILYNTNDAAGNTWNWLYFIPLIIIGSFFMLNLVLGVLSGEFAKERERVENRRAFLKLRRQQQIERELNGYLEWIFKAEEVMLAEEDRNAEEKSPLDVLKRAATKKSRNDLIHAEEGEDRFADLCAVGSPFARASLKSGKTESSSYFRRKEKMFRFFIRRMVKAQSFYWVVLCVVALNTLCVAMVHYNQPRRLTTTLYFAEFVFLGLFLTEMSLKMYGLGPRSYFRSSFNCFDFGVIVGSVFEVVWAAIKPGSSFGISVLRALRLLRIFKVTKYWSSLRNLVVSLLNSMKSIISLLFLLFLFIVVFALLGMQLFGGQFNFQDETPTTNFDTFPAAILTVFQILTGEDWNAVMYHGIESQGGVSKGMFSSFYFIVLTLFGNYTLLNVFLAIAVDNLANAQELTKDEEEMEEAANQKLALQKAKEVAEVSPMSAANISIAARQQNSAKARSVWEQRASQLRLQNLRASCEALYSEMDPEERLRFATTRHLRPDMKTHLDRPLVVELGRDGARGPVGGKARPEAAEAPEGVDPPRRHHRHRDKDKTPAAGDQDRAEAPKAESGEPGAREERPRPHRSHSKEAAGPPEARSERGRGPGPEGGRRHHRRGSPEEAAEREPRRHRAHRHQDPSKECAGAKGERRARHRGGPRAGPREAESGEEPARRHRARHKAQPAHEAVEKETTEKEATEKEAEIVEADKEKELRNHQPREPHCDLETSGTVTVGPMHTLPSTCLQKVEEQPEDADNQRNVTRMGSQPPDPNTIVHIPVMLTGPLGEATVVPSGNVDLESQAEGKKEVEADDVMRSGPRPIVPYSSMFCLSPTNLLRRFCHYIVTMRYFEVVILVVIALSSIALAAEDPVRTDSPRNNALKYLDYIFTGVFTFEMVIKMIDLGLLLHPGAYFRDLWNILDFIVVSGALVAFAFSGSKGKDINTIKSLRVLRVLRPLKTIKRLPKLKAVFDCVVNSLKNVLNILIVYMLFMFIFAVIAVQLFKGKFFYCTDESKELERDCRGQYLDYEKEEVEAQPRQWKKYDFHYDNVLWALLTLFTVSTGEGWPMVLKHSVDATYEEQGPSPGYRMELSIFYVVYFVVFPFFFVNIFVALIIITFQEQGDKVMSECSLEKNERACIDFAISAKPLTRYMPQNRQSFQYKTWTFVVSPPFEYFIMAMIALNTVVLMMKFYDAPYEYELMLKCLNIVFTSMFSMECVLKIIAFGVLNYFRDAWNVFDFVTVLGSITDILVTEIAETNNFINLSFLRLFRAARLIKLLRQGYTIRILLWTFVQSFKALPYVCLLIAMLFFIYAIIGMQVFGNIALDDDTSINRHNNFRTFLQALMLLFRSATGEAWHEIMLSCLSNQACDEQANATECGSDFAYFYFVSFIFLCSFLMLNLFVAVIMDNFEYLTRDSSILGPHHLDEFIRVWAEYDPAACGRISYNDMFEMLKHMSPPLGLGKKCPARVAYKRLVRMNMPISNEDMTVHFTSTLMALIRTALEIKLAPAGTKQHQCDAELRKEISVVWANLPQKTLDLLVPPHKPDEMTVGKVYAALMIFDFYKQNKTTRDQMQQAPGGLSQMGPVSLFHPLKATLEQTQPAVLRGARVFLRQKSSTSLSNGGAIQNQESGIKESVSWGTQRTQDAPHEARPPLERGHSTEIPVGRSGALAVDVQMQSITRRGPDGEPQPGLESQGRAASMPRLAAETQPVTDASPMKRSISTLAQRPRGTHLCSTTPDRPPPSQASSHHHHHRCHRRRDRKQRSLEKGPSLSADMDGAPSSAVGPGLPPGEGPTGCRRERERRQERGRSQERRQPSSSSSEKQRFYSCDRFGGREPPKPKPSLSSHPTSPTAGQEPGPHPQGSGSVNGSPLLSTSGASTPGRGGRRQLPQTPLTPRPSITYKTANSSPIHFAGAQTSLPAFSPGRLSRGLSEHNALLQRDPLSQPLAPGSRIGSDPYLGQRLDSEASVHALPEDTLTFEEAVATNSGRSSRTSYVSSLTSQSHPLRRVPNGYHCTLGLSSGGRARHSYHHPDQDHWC
N-type (CaV2.2) Ca2+ channel (α1B with β2a and α2δ) in HEK293 cells (human; rat), sequence (P54290 25-1091, stated change not applied, chain 3 of 3, other chains not shown, further chain): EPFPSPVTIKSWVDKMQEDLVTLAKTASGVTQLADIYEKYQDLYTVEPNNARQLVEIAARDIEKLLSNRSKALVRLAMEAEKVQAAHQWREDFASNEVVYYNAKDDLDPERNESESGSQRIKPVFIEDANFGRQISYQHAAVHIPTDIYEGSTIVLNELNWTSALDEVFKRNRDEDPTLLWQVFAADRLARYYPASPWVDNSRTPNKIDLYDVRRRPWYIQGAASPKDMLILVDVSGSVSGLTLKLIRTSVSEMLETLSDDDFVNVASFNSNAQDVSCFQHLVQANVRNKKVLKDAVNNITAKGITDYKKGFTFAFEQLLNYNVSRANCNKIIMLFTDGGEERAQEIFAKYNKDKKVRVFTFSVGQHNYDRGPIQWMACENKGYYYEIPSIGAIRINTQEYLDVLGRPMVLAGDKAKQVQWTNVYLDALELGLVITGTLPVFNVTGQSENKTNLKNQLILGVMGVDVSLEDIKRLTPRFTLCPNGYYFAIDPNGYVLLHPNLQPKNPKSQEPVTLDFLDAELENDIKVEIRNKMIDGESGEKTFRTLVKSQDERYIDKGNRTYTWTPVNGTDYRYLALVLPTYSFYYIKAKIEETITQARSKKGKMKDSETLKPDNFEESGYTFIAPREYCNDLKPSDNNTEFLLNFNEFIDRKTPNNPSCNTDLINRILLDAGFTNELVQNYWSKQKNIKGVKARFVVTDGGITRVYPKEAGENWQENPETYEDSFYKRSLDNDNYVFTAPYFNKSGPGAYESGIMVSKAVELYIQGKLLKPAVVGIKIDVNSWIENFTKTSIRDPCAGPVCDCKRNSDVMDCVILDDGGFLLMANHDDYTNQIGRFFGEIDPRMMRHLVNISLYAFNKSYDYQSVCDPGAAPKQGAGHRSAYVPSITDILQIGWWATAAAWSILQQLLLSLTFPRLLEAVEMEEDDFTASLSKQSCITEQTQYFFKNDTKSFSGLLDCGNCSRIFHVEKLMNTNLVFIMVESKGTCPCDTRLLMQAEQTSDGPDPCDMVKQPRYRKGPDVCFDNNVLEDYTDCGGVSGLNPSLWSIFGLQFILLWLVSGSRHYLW
I-IIB-YFP (human), sequence (Q00975 357-482): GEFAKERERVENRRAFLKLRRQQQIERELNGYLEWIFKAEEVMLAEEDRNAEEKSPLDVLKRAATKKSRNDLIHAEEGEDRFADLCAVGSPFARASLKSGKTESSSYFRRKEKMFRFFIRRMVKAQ
I-IIC-YFP (rabbit), sequence (P15381 436-554): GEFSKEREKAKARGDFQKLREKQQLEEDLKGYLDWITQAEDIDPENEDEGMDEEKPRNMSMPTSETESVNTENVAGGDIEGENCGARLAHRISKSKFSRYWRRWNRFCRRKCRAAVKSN
I-IIC-CFP (rabbit), sequence (P15381 436-554): as above

Q: Which results are given for “Gβγ (G protein β1 and γ2 subunits coexpressed) (from UniProt P62871 2-340; P63212 2-68)”?
A: W(∞), fraction of channels residing in the willing configuration at steady state, 0 mV (compound-state analysis) [1]: 0.6; τ, time-constant with which the steady state is achieved, 0 mV (compound-state analysis) [1]: 60 ms

Q: How did the Kd,EFF relative to NTB/I-IIB (I-IIC-YFP (rabbit)) turn out when NTB-CFP (from UniProt Q00975 1-95) was run?
A: > 10 fold

Q: Which results are given for NTC-CFP (from UniProt P15381 1-53)?
A: Kd,EFF relative to NTB/I-IIB (I-IIB-YFP (human) [2]): > 10 fold; Kd,EFF relative to NTB/I-IIB (I-IIB-YFP (human) [3]): 8 fold

Q: With NTC-YFP (from UniProt P15381 1-53) as the substance, how does the Kd,EFF relative to NTB/I-IIB (I-IIC-CFP (rabbit)) read?
A: > 10 fold

Q: With “pGADT7 (empty vector; the isolated GAL4 activating domain itself) (from UniProt P04386 768-881)” as the substance, how does the High Stringency (%) (NTB(1-44)-pGBKT7 (human) [4]) read?
A: 0.98%

Q: And the High Stringency (%) [5]?
A: 8.44%

Q: What about the High Stringency (%) [6] of the same substance?
A: 18.7%

Q: What about the High Stringency (%) [7] of the same substance?
A: 2.11%

Q: What about the Filter Lift Assay (%) (NTB(1-44)-pGBKT7 (human) [8]) of the same substance?
A: 47.9%

Q: And the Filter Lift Assay (%) [9]?
A: 9.18%

Q: And the Filter Lift Assay (%) [10]?
A: 32.2%
